Reference: patent publication US7390625B2, “Apoptosis-associated protein and use thereof” (Takeda Pharmaceutical Company Limited, priority 2002, dated 2008)

T1: ASK1 (Homo sapiens, UniProt Q99683)
T1 construct: Myc; expressed in transfected cells; host or cells: HEK293
T1 sequence (Q99683 1-1374): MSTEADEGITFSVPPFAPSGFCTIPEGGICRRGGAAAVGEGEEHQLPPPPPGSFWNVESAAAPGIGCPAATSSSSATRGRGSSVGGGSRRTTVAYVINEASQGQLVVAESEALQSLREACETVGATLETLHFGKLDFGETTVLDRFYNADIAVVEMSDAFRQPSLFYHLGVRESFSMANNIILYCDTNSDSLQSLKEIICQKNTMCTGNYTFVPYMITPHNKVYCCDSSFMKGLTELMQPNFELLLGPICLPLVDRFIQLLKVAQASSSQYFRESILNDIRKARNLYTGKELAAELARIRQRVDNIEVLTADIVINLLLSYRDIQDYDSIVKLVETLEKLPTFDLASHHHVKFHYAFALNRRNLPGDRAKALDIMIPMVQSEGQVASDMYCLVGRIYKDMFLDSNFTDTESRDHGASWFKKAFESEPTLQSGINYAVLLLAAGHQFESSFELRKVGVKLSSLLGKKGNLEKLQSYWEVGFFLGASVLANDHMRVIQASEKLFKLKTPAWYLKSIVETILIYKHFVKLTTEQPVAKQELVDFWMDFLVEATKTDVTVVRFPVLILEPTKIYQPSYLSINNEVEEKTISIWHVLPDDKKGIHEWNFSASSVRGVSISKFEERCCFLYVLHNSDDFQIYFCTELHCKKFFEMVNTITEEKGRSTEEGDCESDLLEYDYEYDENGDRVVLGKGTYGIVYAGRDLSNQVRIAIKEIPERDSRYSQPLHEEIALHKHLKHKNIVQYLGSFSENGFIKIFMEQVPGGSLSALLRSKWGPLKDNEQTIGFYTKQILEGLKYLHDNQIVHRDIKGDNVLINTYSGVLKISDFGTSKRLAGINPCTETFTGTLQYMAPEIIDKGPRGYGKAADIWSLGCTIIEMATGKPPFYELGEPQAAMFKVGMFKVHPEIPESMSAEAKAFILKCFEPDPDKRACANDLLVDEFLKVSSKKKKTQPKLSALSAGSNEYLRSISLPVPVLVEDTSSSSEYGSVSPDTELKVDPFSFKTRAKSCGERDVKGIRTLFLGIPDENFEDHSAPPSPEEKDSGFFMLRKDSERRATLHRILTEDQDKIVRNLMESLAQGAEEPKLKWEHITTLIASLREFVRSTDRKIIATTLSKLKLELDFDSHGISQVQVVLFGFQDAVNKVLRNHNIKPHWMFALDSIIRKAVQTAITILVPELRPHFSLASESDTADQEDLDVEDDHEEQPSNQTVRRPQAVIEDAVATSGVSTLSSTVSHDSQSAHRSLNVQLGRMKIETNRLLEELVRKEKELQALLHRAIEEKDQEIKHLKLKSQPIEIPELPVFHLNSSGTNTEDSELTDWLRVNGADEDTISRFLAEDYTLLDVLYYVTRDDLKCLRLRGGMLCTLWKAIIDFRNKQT

B1: CFP-ABP1: fusion protein of ABP1 with CFP at the N-terminal (protein)
chain: MRPLDIVELAEPEEVEVLEPEEDFEQFLLPVINEMREDIASLTREHGRAYLRNRSKLWEMDNMLIQIKTQVEASEESALNHLQNPGDAAEGRAAKRCEKAEEKAKEIAKMAEMLVELVRRIEKSESS
modifications: left off: large carriers
notes: fusion protein of ABP1 with CFP at the N-terminal
B2: ABP1: ASK1-binding protein of 127 amino acids encoded by gene PGR1 (SEQ ID NO:2); Myc-tagged in PAE-ABP1 cells (protein, listed as Homo sapiens)
chain: B1 chain
modifications: Myc tag
notes: Myc-tagged in PAE-ABP1 cells

What was measured:
ASK1 [1] = biological target: T1, ASK1; assay: Co-immunoprecipitation of ABP1 and ASK1 co-expressed in HEK293 cells; type: binding
Method: FIGS. 4A-B show the results of binding experiments of ABP1 and ASK1. FIG. 4A: HEK293 cells were transfected with Flag-ABP1 and the Myc-ASK1 plasmid, the cells were recovered after 24 hours, immunoprecipitation with an anti-Flag antibody was conducted, and immunoblot analysis was conducted using an anti-Myc antibody. FIG. 4B: HEK293 cells were transfected with Flag-ASK1 and the CFP-ABP1 plasmid, the cells were recovered after 24 hours, immunoprecipitation with an anti-Flag antibody was conducted, and immunoblot analysis was conducted using an anti-GFP antibody. Note that CFP is a variant of GFP and can be recognized by an anti-GFP antibody. For both FIGS. 4A and B, the two right lanes show the results obtained with H2O2 treatment (0.5 mM, 1 hour). […] IP stands for immunoprecipitation, and IB stands for immunoblot.
Two fusion proteins, i.e., Flag-ABP1 and Myc-ASK1, were co-expressed in HEK293 cells. […] The antibodies used were anti-Flag antibody (described above) and anti-Myc antibody (Clone 9E10, Calbiochem). This binding was enhanced by treatment with H2O2, which is ASK1 activation factor. […] The antibodies used were anti-Flag antibody (described above) and anti-GFP antibody (Medical & Biological Laboratories CO.).

HeLa cells = assay: Cell death assay in HeLa cells transiently expressing CFP fusion proteins; type: cell-based
Method: FIGS. 6A-B show the induction of cell death by ABP1 in HeLa cells. FIG. 6A: Fluorescence photomicrographs at 36 hours after HeLa cells were transfected with CFP or the CFP-ABP1 plasmid (upper panel) and differential interference photomicrographs for the same fields (lower panel) are shown. FIG. 6B: The ratio (%) of cell death at 36 hours after transfection is shown.
FIGS. 10A-B show the induction of cell death by an ABP1-deficient variant. FIG. 10A: A schematic diagram of the ABP1-deficient variant is shown. […] FIG. 10B: The ratio (%) of cell death at 36 hours after transfection in cells introduced with the ABP1-deficient variant is shown.
• (1) To examine the intracellular localization and function of ABP1, HeLa cells were transfected with the CFP-ABP1 plasmid [prepared by subcloning ABP1 cDNA prepared by PCR into pECFP-C1 (Clontech)], which was also used in the immunoprecipitation experiment, and which expresses a fusion protein of ABP1 with CFP at the N-terminal-[transfection conducted using FuGENE6 (Roche Diagnostics K.K) as directed in the instruction manual thereof] to allow the transient expression of the protein, and CFP fluorescence was examined over time using a fluorescence microscope. […] This calculation was made for CFP-positive cells.
As described above, ABP1 has none of the functional domains of existing apoptosis-related factors. […]

PAE-ABP1 cells [2] = assay: DNA fragmentation (agarose gel electrophoresis) in PAE-ABP1 cells; type: cell-based, porcine; conditions: after removal of tetracycline
Method: PAE-ABP1 cells were examined for DNA fragmentation at each time after removal of tetracycline by agarose gel electrophoresis (upper panel). At both ends are molecular weight markers (M), with their sizes shown at the right end.
PAE-ABPl cells (2×10^6 cells) were lysed in 200 μl of lysis buffer [20 mM Tris-HCl (pH 7.5), 10 mM EDTA, 0.5% Triton X-100]. the lysate was centrifuged, and the supematant was recovered and treated with 0.2 mg/mi proteinase K at 420° C for 1 hour. Subsequently, DNA was purified by the phenol-chloroform extraction method and the ethanol precipitation method, this was lysed again in a TE buffer containing 0.2 mg/ml ribonuclease A (10mM Tris-HCl, 1mM EDTA), the lysate was electrophoresed on 2% agarose gel, stained with ethidium bromide, and the migration pattern was photographed.

p38 = assay: Immunoblot with anti-phosphorylated p38 antibody in PAE-ABP1 cells; type: cell-based, porcine; conditions: 12 hours after tetracycline removal
From the text: (§1) FIGS. 11A-B show the activation of ASK1, JNK, and p38 by ABP1. FIG. 11A: PAE-ABP1 cells were cultivated in the absence of tetracycline, the activation of endogenous JNK and p38 was examined by immunoblot analysis using each anti-phosphorylated protein antibody. FIG. 11B: PAE-ABP1 cells were cultivated in the absence of tetracycline, the activation of endogenous ASK1 was examined by immunoblot analysis using an anti-phosphorylated protein antibody. IB stands for immunoblot.
(§2) The activation of JNK and p38 during induction of the expression of ABP1 was investigated using respective anti-phosphorylated protein antibodies using PAE-ABP1 cells. The antibodies used were an anti-phosphorylated JNK antibody (Cell Signaling), an anti-phosphorylated p38 antibody (Cell Signaling), and an anti-phosphorylated ASK1 antibody (Tobiume et al., EMBO Rep., 2, 222-228, 2001). The cells were lysed using a lysis buffer (described above) in the same manner as Example 4, the lysate was centrifuged, the supernatant was recovered and reacted with an anti-Myc antibody (Clone 9E10, Calbiochem), Protein A-sepharose 4B (Zymed Laboratories) was added, incubation was conducted for 30 minutes, the reaction mixture was washed with the lysis buffer three times, an SDS sample buffer (described above) was added, and the same procedure as the immunoblotting method was followed.

caspase-3 = assay: Caspase-3 activity (DEVD-AFC fluorometric assay) in PAE-ABP1 cells; type: cell-based, porcine; conditions: absence of tetracycline, around the time of cell death
Method: (§3) FIGS. 9A-B show the caspase dependency of cell death by ABP1. FIG. 9A: PAE-ABP1 cells were cultivated in the absence of tetracycline, and caspase-3 activity was measured after 0, 12, 24, and 36 hours. The results are shown as relative values with the value in the presence of tetracycline taken as 1. FIG. 9B: PAE-ABP1 cells were treated with zVAD-fmk (50 μM) simultaneously with removal of tetracycline, and the ratio (%) of dead cells was quantified. Cell death assay was conducted at 18 hours after removal of tetracycline. Tet stands for tetracycline.
The same was also confirmed in TUNEL staining of PAE-ABP1 cells. • (4) DNA fragmentation during apoptosis normally occurs subsequent to caspase activation. […] The measurement was conducted using a CPP32/caspase-3 fluorometric protease assay kit (MBL) with the synthetic fluorescence peptide DEVD-7-amino-4-trifluoromethyl coumarin (AFC) as a substrate. The fluorescence intensity from the liberated AFC was measured at an excitation wavelength of 360 nm and a fluorescence wavelength of 530 nm using a fluorescence spectrophotometer. Each sample was assayed twice. The results are shown as relative values with the value in the presence of tetracycline taken as 1.

JNK = assay: Immunoblot with anti-phosphorylated JNK antibody in PAE-ABP1 cells; type: cell-based, porcine; conditions: 12 hours after tetracycline removal
From the text: as §1, §2

PAE-ABP1 cells [3] = assay: Cell death assay in PAE-ABP1 cells after removal of tetracycline; type: cell-based, porcine; conditions: 48 hours after removal of tetracycline (Myc-ABP1 expressed)
Method: FIGS. 7A-B show the induction of cell death by ABP1 in PAE-ABP1 cells. FIG. 7A: Phase contrast photomicrographs at 36 hours after cultivation of PAE-ABP1 cells in the presence (+) and absence (−) of tetracycline (Tet) are shown. FIG. 7B: The ratio (%) of cell death from cultivation in the presence of tetracycline (O hour) and at 24 hours and 48 hours after removal of tetracycline.
as §3, with “Tet stands for tetracycline.” left out
When these cells were cultured in the absence of tetracycline, cell death was induced with the expression of the ABP1 protein, as in the transient expression of the ABP1 protein in HeLa cells (FIG. 7A). The ratio of dead cells to all cells (the ratio of cells showing a morphological sign of cell death to all cells was determined under a microscope; the results were shown as the mean for three visual fields) was determined to be about 55% at 48 hours after removal of tetracycline (FIG. 7B).

ASK1 [4] = assay: Immunoblot with anti-phosphorylated ASK1 antibody in PAE-ABP1 cells; type: cell-based, porcine; conditions: 12 hours after tetracycline removal
From the text: as §1, §2

Row | Molecule | effect of H2O2 treatment on binding of ABP1 and ASK1 (ASK1 [1]; H2O2 treatment (0.5 mM, 1 hour)) | binding of ABP1 and ASK1 (co-immunoprecipitation) (ASK1 [1]; immunoprecipitation with anti-Flag antibody, immunoblot) | ratio of cell death among cells expressing the fusion protein (HeLa cells; 36 hours after transfection) | time after transfection at which signs of cell death began (HeLa cells; detachment from the culture plate, membrane blebbing) | DNA fragmentation (PAE-ABP1 cells [2]) | activation of endogenous p38 (p38) | caspase-3 activity (caspase-3) | activation of endogenous JNK (JNK) | ratio of dead cells to all cells (PAE-ABP1 cells [3]) | activation of endogenous ASK1 (ASK1 [4])
1 | B1 | also enhanced | binding of the two proteins was confirmed | about 70% | around 24 hours | – | – | – | – | – | –
2 | B2 | – | – | – | – | formed a DNA ladder | observed | decreased | observed | about 55% | activation of ASK1 was observed
